Earlier results, collected in publication PMC4616163, “Inverse relationship between chitobiase and transglycosylation activities of chitinase-D from Serratia proteamaculans revealed by mutational and biophysical analyses” (Scientific Reports, 2015).

Set-up: method as in PMID 11160110, PMID 18368288
Details: other chitinases, literature

B1: SmChiA: mesophilic chitinase (protein, UniProt P07254 24-563, looked up)
Chitinase A: AAPGKPTIAWGNTKFAIVEVDQAATAYNNLVKVKNAADVSVSWNLWNGDAGTTAKILLNGKEAWSGPSTGSSGTANFKVNKGGRYQMQVALCNADGCTASDATEIVVADTDGSHLAPLKEPLLEKNKPYKQNSGKVVGSYFVEWGVYGRNFTVDKIPAQNLTHLLYGFIPICGGNGINDSLKEIEGSFQALQRSCQGREDFKVSIHDPFAALQKAQKGVTAWDDPYKGNFGQLMALKQAHPDLKILPSIGGWTLSDPFFFMGDKVKRDRFVGSVKEFLQTWKFFDGVDIDWEFPGGKGANPNLGSPQDGETYVLLMKELRAMLDQLSAETGRKYELTSAISAGKDKIDKVAYNVAQNSMDHIFLMSYDFYGPFDLKNLGHQTALNAPAWKPDTAYTTVNGVNALLAQGVKPGKVVVGTAMYGRGWTGVNGYQNNIPFTGTATGPVKGTWKNGIVDYRQIAGQFMSGEWQYTYDATAEAPYVFKPSTGDLITFDDARSVQAKGKYVLDKQLGGLFSWEIDADNGDILNSMNASLGNSAGVQ
Tm: 64.2 °C
